The text below walks through data of IntAct's records for PubMed 22927646.

B1: Isoform 2 of Acid ceramidase (Homo sapiens), Q13510-2 (parent)
chain: MNCCIGLGEKARGSHRASYPSLSALFTEASILGFGSFAVKAQWTEDCRKSTYPPSGPTYRGAVPWYTINLDLPPYKRWHELMLDKAPVLKVIVNSLKNMINTFVPSGKIMQVVDEKLPGLLGNFPGPFEEEMKGIAAVTDIPLGEIISFNIFYELFTICTSIVAEDKKGHLIHGRNMDFGVFLGWNINNDTWVITEQLKPLTVNLDFQRNNKTVFKASSFAGYVGMLTGFKPGLFSLTLNERFSINGGYLGILEWILGKKDVMWIGFLTRTVLENSTSYEEAKNLLTKTKILAPAYFILGGNQSGEGCVITRDRKESLDVYELDAKQGRWYVVQTNYDRWKHPFFLDDRRTPAKMCLNRTSQENISFETMYDVLSTKPVLNKLTVYTTLIDVTKGQFETYLRDCPDPCIGW

The variants in this experiment derive from B1. As to conditions: with stf1_human NR5A1, Q13285.
stf1_human NR5A1, Q13285, sequence (Q13285 whole entry): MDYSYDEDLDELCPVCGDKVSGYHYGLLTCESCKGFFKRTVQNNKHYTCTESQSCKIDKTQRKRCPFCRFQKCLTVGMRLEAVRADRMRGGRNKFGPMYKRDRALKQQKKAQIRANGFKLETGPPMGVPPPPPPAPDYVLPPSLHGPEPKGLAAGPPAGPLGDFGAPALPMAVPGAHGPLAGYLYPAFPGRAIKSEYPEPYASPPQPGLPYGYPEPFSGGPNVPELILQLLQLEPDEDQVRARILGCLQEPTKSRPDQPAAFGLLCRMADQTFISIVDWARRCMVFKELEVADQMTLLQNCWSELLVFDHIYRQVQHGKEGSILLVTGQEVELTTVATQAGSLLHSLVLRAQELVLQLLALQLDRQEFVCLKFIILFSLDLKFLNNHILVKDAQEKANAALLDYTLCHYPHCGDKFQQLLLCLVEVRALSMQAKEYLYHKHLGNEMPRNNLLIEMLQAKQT
Regarding MNCCIGLGEKARGSHRASYPSASAAFTEASILGFGSFAVKAQWTEDCRKSTYPPSGPTYRGAVPWYTINLDLPPYKRWHELMLDKAPVLKVIVNSLKNMINTFVPSGKIMQVVDEKLPGLLGNFPGPFEEEMKGIAAVTDIPLGEIISFNIFYELFTICTSIVAEDKKGHLIHGRNMDFGVFLGWNINNDTWVITEQLKPLTVNLDFQRNNKTVFKASSFAGYVGMLTGFKPGLFSLTLNERFSINGGYLGILEWILGKKDVMWIGFLTRTVLENSTSYEEAKNLLTKTKILAPAYFILGGNQSGEGCVITRDRKESLDVYELDAKQGRWYVVQTNYDRWKHPFFLDDRRTPAKMCLNRTSQENISFETMYDVLSTKPVLNKLTVYTTLIDVTKGQFETYLRDCPDPCIGW [L22A;L25A], the “effect of a mutation on the interaction” value is reported as “disrupting interaction strength”.
